The text below walks through data of patent US20230094867A1 (Janssen / Centocor, published 2023).

In assay [1] the target is T1, CD9B503 (CD9B441-HL-scFv-Fc bivalent fusion protein) (Biotinylated in the panning and MSD screening assays of Example 1.).
T1 construct: also called CD9B441-derived scFv-fusion protein
Kind of assay: SPR (Biacore), mAb captured on anti-mouse Fc chip, scFv-Fc antigen 100 nM to 0.16 nM in solution. How it is done:
(§1) Biacore system (Cytiva) was used to measure bio-molecular interactions by surface plasmon resonance (SPR). Anti-Mouse Fc antibody directly immobilized on a CMS sensor chip. Library Antibodies (Mouse IgG2a) diluted to 1 ug/ml to reach approximately 20-60 RU. Antigens (scFv Fc fusions) are associated at 100 nM to 0.16 nM, 1:5 dilutions for 3 minutes. Dissociation for 30 mins. The results of the assay (Table 1 below) show the nanomolar dissociation constant of A003B192 and A003B274 with CD9B503 (CD9B441-HL-scFv-Fc bivalent fusion protein) and CD9B574 (CD9B441-LH-scFv-Fc monovalent fusion protein).

For assay [2], the target named is T2, CD79b CAR (CD9B441-HL) expressed on SupT1 cells.
T2 construct: Chimeric antigen receptor with the CD9B441 scFv in VH-VL order; also called SupT1-CD9B441-HL; CD9B441-HL SupT1 cells
T2 sequence (chain, as listed by the source limits assumed): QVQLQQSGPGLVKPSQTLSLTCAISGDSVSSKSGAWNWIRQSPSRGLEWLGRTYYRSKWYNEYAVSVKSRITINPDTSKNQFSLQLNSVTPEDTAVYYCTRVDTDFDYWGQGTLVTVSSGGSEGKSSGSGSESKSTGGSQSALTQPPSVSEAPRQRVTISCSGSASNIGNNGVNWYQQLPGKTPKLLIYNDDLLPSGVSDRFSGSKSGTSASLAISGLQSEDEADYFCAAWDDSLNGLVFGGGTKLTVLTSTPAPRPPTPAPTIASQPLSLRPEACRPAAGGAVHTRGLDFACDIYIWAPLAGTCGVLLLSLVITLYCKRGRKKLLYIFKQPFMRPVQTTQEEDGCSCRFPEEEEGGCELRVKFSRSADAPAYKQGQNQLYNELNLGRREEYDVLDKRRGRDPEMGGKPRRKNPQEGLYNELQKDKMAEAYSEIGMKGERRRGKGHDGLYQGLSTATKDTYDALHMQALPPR
Kind of assay: flow cytometry on live CD9B441-HL SupT1 cells, detected with PE goat anti-mouse IgG; PE median fluorescence intensity. How it is done: SupT1 cells expressing CD9B441-HL were compared to parental CAR-SupT1 cells. Cells (200,000 cells/well) were stained with LIVE/DEAD Fixable Near-IR viability dye (Life Technologies cat #L10119) and then incubated with increasing concentrations of A003B192 and A003B274 for 45 minutes on ice. In addition, both anti-idiotypic antibodies were tested in the presence of Fc-CD9B441-HL fusion protein to assess the specificity of A003B192 and A003B274 binding to CD9B441-HL CAR. Following incubation, the samples were washed with BSA stain buffer (BD Biosciences cat #554657) and stained with PE-goat anti-mouse IgG polyclonal antibody (Biolegend cat #405307) to detect bound antibody on live CAR+SupT1 cells. After incubation, washing, and fixation (Cytofix, BD Biosciences cat #554655), the samples were acquired on a 10 color FACSCanto II (BD Biosciences) flow cytometer. Analysis was done using FlowJo (TreeStar) and the PE median fluorescent intensity of live CAR+SupT1 cells plotted in FIG. 3A. No binding was detected on CAR-SupT1 parental cells (data not shown) or in the presence of excess Fc-CD9B441-HL CAR fusion protein.
(In general: Flow cytometry measures light scatter and fluorescence of single cells or particles in a stream.)

Assay [3] deals with T1, CD9B503 (CD9B441-HL-scFv-Fc bivalent …). As to the kind of experiment: MSD electrochemiluminescent immunoassay, crude Fab lysate on biotinylated scFv-Fc on streptavidin plate. How it is done:
The monoclonal Fab lysates prepared from the enriched Fab libraries were screened in Meso Scale Discovery (MSD) based electro-chemiluminescent immunoassays (ECLIA) for binding to CD9B503 but not to a similar negative control scFv fusion protein CD9B504 (CD9B449-HL-scFv Fc). Biotinylated ScFv-Fc fusion antigens, target antigen CD9B503 or negative control scFv fusion protein counter screening reagent CD9B504, were diluted to a concentration of 2.5 nM in SuperBlock T20 (TBS) Blocking Buffer (Thermo cat #37536) and 50 ul/well was added to their respective MSD 384-well streptavidin plates (Meso Scale Discovery cat #L21SA-5) and incubated on a shaker for 30 min at RT. The plates were washed 1×80 ul/well 1×PBST and crude Fab lysates from E. coli expressions in 96-well plates were stamped into the 384-well assay plates in duplicate and incubated on a shaker for 1 hour at RT. The assay plates were washed 1×80 ul/well 1×PBST and 6 nM of SULFO-TAG Anti-human/NHP Kappa Antibody (Meso Scale cat #D20TF-6) added at 10 ul/well, and the plates incubated on a shaker for 1 hour at RT. The plates were washed 2×80 ul/well 1×PBST and 35 ul/well of 1×MSD Read Buffer T (Meso Scale cat #R92TC-1) added to each well and the plates analyzed on an MSD Sector 5600 plate reader. […]

For assay [4], the target named is T2, CD79b CAR (CD9B441-HL) expressed on …. Kind of assay: flow cytometry on live CD9B441-HL SupT1 cells with directly rPE-conjugated antibody; PE median fluorescence intensity.
The target in assay [5] is T3, CD9B574 (CD9B441-LH-scFv-Fc monovalent fusion protein).
T3 construct: Described only as CD9B441-LH-scFv-Fc monovalent fusion protein
T3 sequence (scFv, as listed by the source limits assumed): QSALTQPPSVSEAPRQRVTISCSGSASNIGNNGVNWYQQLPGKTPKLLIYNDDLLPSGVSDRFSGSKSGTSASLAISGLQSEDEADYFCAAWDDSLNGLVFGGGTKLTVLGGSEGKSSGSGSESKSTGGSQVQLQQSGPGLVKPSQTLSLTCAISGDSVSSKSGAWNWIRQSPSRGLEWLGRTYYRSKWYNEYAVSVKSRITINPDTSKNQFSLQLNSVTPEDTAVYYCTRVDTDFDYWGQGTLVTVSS
Kind of assay: SPR (Biacore), mAb captured on anti-mouse Fc chip, scFv-Fc antigen 100 nM to 0.16 nM in solution. As to the method:
as §1

Values joined by “and” are separate entries in the source; they are usually repeats but may differ in a detail not shown here. Equal values may be shown once.

T1 sequence (scFv, as listed by the source limits assumed): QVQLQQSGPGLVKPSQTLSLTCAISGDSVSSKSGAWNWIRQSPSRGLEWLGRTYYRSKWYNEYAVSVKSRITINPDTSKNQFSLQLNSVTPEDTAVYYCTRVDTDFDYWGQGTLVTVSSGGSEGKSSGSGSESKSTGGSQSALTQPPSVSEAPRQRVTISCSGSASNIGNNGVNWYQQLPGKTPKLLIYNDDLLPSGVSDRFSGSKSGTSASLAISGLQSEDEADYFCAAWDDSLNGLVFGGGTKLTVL

B1: A003B274 (antibody, mouse IgG2a, kappa, V domains shown)
VH: QVQLVQSGAEVKKPGSSVKVSCKASGGTFKSYAISWVRQAPGQGLEWMGYISPESGTANYAQKFQGRVTITADESTSTAYMELSSLRSEDTAVYYCARERYYYGYRRYRYYGMDVWGQGTLVTVSS
VL: not shown
notes: also called anti-idiotypic antibody A003B274; HC construct PBD000109922 / LC construct PBD00098715
In the case of B1, the Kd in assay [1] is 0.23 nM and 0.226 nM. Further, in assay [2], the concentration for a half-maximal effect (EC50 (read off the curve)) is about 0.04 µg/mL.

B2: CL002588437 (monoclonal Fab, parent clone for the VH and VL in A003B274) (Fab, V domains shown)
VH: QVQLVQSGAEVKKPGSSVKVSCKASGGTFKSYAISWVRQAPGQGLEWMGYISPESGTANYAQKFQGRVTITADESTSTAYMELSSLRSEDTAVYYCARERYYYGYRRYRYYGMDVWGQGTLVTVSS
VL: not shown
notes: Soluble human Fab in crude E. coli lysate
With B2, the “signal ratio of CD9B503 over CD9B504” value in assay [3] worked out at 10.

B3: recombinant phycoerythrin-conjugated A003B192 (antibody, mouse IgG2a, kappa, V domains shown)
VH: QVQLVQSGAEVKKPGSSVKVSCKASGGTFKSDAISWVRQAPGQGLEWMGGIRPNEGNAEYAQKFQGRVTITADESTSTAYMELSSLRSEDTAVYYCARGRYGAYRLVYYAFDYWGQGTLVTVSS
VL: not shown
modifications: antibody conjugated to recombinant phycoerythrin (rPE), 1:1 PE:antibody; site of attachment not stated
notes: also called A003B192 conjugated to rPE; PE-antibody conjugate
Turning to B3, the binding result in assay [4] was “binds”.

B4: CL002588468 (monoclonal Fab, parent clone for the VH and VL in A003B192) (Fab, V domains shown)
VH: QVQLVQSGAEVKKPGSSVKVSCKASGGTFKSDAISWVRQAPGQGLEWMGGIRPNEGNAEYAQKFQGRVTITADESTSTAYMELSSLRSEDTAVYYCARGRYGAYRLVYYAFDYWGQGTLVTVSS
VL: not shown
notes: as for B2
Consider B4, for which the “signal ratio of CD9B503 over CD9B504” value in assay [3] amounted to 10.

B5: A003B192 (antibody, mouse IgG2a, kappa, V domains shown)
VH: QVQLVQSGAEVKKPGSSVKVSCKASGGTFKSDAISWVRQAPGQGLEWMGGIRPNEGNAEYAQKFQGRVTITADESTSTAYMELSSLRSEDTAVYYCARGRYGAYRLVYYAFDYWGQGTLVTVSS
VL: not shown
notes: also called anti-idiotypic antibody A003B192; HC construct PBD000109791 / LC construct PBD00098715
For B5, the Kd in assay [1] is 0.04 nM and 0.037 nM; in assay [5] it was 1.6 nM and 1.61 nM. Further, the “EC50 (read off the curve)” value in assay [2] is about 0.02 µg/mL.

By EC50 (read off the curve) is commonly meant the concentration giving half of the maximal effect. High values mean a less potent agent, low ones a more potent agent.
